Measurements: patent US20140249045

T1: RagD GTPase as used in the in vitro GTPase assay, Q9NQL2
T1 chain: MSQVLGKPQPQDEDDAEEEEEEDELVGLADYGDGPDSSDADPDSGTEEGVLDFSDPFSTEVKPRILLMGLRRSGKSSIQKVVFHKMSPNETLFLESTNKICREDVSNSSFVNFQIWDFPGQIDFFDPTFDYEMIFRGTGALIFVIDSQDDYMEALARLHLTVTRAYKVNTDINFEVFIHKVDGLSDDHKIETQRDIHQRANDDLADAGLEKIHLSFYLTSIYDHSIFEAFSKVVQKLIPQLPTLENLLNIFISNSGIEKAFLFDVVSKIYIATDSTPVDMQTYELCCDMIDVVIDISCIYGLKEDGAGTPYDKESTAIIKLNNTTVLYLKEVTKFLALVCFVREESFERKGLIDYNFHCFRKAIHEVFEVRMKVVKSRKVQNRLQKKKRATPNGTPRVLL

B1: His-LRS-(759-1176) (protein)
chain: MADAGILRLYTWVEWVKEMVANWDSLRSGPASTFNDRVFASELNAGIIKTDQNYEKMMFKEALKTGFFEFQAAKDKYRELAVEGMHRELVFRFIEVQTLLLAPFCPHLCEHIWTLLGKPDSIMNASWPVAGPVNEVLIHSSQYLMEVTHDLRLRLKNYMMPAKGKKTDKQPLQKPSHCTIYVAKNYPPWQHTTLSVLRKHFEANNGKLPDNKVIASELGSMPELKKYMKKVMPFVAMIKENLEKMGPRILDLQLEFDEKAVLMENIVYLTNSLELEHIEVKFASEAEDKIREDCCPGKPLNVFRIEPGVSVSLVNPQPSNGHFSTKIEIRQGDNCDSIIRRLMKMNRGIKDLSKVKLMRFDDPLLGPRRVPVLGKEYTEKTPISEHAVFNVDLMSKKIHLTENGIRVDIGDTIIYLVH
B2: LRS (759-1176 a.a) fragment H844A (protein)
chain: MADAGILRLYTWVEWVKEMVANWDSLRSGPASTFNDRVFASELNAGIIKTDQNYEKMMFKEALKTGFFEFQAAKDKYRELAVEGMARELVFRFIEVQTLLLAPFCPHLCEHIWTLLGKPDSIMNASWPVAGPVNEVLIHSSQYLMEVTHDLRLRLKNYMMPAKGKKTDKQPLQKPSHCTIYVAKNYPPWQHTTLSVLRKHFEANNGKLPDNKVIASELGSMPELKKYMKKVMPFVAMIKENLEKMGPRILDLQLEFDEKAVLMENIVYLTNSLELEHIEVKFASEAEDKIREDCCPGKPLNVFRIEPGVSVSLVNPQPSNGHFSTKIEIRQGDNCDSIIRRLMKMNRGIKDLSKVKLMRFDDPLLGPRRVPVLGKEYTEKTPISEHAVFNVDLMSKKIHLTENGIRVDIGDTIIYLVH
B3: LRS (759-1176 a.a) fragment R845A (protein)
chain: MADAGILRLYTWVEWVKEMVANWDSLRSGPASTFNDRVFASELNAGIIKTDQNYEKMMFKEALKTGFFEFQAAKDKYRELAVEGMHAELVFRFIEVQTLLLAPFCPHLCEHIWTLLGKPDSIMNASWPVAGPVNEVLIHSSQYLMEVTHDLRLRLKNYMMPAKGKKTDKQPLQKPSHCTIYVAKNYPPWQHTTLSVLRKHFEANNGKLPDNKVIASELGSMPELKKYMKKVMPFVAMIKENLEKMGPRILDLQLEFDEKAVLMENIVYLTNSLELEHIEVKFASEAEDKIREDCCPGKPLNVFRIEPGVSVSLVNPQPSNGHFSTKIEIRQGDNCDSIIRRLMKMNRGIKDLSKVKLMRFDDPLLGPRRVPVLGKEYTEKTPISEHAVFNVDLMSKKIHLTENGIRVDIGDTIIYLVH

Target: T1, RagD GTPase as used in the in vitro …

| Protein | GTP hydrolysis by RagD GTPase (in vitro GTPase assay) | GAP activity on RagD (in vitro GTPase assay) |
| --- | --- | --- |
| B1 | addition of WT LRS fragment (759-1176 a.a) enhanced GTP hydrolysis by RagD GTPase in dose- and time-dependent manner | – |
| B2 | – | H844A and R845A mutants lost their GAP activity while WT LRS showed GAP activity |
| B3 | – | H844A and R845A mutants lost their GAP activity while WT LRS showed GAP activity |
